This note sets out measurements from publication PMC5028202 (ACS chemical biology, 2015).

This data set deals with the molecule itself. The experiment in a line: NMR structure.

B1: XCL1 CC5 (A36C A49C), disulfide-locked XCL1dim variant (natural protein, UniProt P47992 22-114, looked up)
chain: VGSEVSDKRTCVSLTTQRLPVSRIKTYTITEGSLRCVIFITKRGLKVCCDPQATWVRDVVRSMDRKSNTRNNMIQTKPTGTQQSTNTAVTLTG
B1: the “stoichiometry N” value came out at 2.

The term stoichiometry N denotes the number of molecules, sites or subunits per partner or assembly.
